The source of these data is publication doi:10.1101/2021.01.14.426695.

The stoichiometry N is the number of molecules, sites or subunits per partner or assembly.

Assay [1] addresses S-R (SARS-CoV-2 S protein trimer, furin site deleted to a single arginine) (SARS-CoV-2). As to the kind of experiment: negative stain EM.
The target of assay [2] is S-R/PP (SARS-CoV-2 S protein trimer, furin site deleted to a single arginine, two stabilizing prolines) (SARS-CoV-2). Kind of assay: negative stain EM.

With “S-R (SARS-CoV-2 S protein trimer, furin site deleted to a single arginine)”, in assay [1], the stoichiometry N was 3.

As for “S-R/PP (SARS-CoV-2 S protein trimer, furin site deleted to a single arginine, two stabilizing prolines)”, in assay [2], the stoichiometry N came to 3.
